Experiment: label from the status in PepcDB records

Sequence | protein production
MTHATSTETIHYVNEDGDQVFEDGGGKLDFTRTVTIDDVTNEVVEYGEWTPVTDDEFAAVTSPDKDGYTPDTSEVAAQKPDMTDGPDGTVKDVEVTVTYTANPAVATITYVDDDENGKLEHHHHHH | failed
MTHKVAFSFADGKTLFFPVKANEILLDAALRNGIKIPLDCREGVCGTCQGRCESGQYSQDYVDEEALSPQDLEQRKMLTCQTRVQSDAAFYFDFDSSLCHSADPVQLQGSVIDVRQVSESTAILHLDLGGHQAPLDFLPGQYARLSIPGTGTSRAYSFANRPAADNQLQFLIRLLPDGVMSNYIRERCLVGDTLQLEAPLGAFYLRQISRPLILVAGGTGLSALLAMLEQIVEQGCQQPVHLYYGVRHSRDLCELERIQAHGERLADFRFTPVISDANPDWPGKRGYISEHFDSSELRDQDTDMYVCGPPPMVDSIRIWLQEQQLNRVQLYYERFTESNI | failed
MTHVRIVMVNTTLPANIGSALRAMKTMGLSQLVLVAPKTYPHPDIDALAAGAQDLVEKIKIVDTLEQAIQDCHIVFGTSARSRTIPWPLLDARPAAELSMDAVITRQQEIAIVFGREDRGLTNEELALANYHLTIPVNTDYGVLNVAQAIQVICYEMRMATLAQVQNDQASSDSQKMQVTEKIEMDWDEPLVNHQQMEEFYPHLEKMLVDIEFLDPQNPRLLPLRLRRLFGRAQLDRMEYHLLRGIFSRVQALSHGKWKKTALDKEEQSDV | failed
MTIAPTTLLLFAATALAELVGCYLPYLWLRKGGSVWLLLPTALSLAVFVWLLSLHPEASGRVYAAYGGVYIASALLWLWWVDGVTPTRWDLLGAACCLLGMAVIMFSPRSA | failed
MTIAVDFDGTIVEHRYPRIGEEIPFAVETLKLLQQEKHRLILWSVREGELLDEAIEWCRARGLEFYAANKDYPEEERDHQGFSRKLKADLFIDDRNVGGIPDWGIIYEMIKEKKTFADIYSQQREENTSQKKKRKWLPF | not failed
MTIGRAKVYATLSKIFYHLFYDEAIPKDCREIIEKFGEIDFNLRSVLVRELRGSVLIKDMPQSLAEVYESVMKDFYERYGFQASELHADHIAVELAFMSKLVEREISLAQQMKEEELYKIRAAQHRFIKAHLQPLVKNLPSAPLLNFVRDFVREDAKYLYSSLVGEKNEGADNN | not failed
MTIKALFWDIGGVLLTNGWDREQRADVAQRFGLDTDDFTERHRLAAPELELGRMTLAEYLEQVVFYQPRDFTPEDFRAVMEEQSQPRPEVLALARDLGQRYRMYSLNNEGRDLNEYRIRTFGLGEFLLAFFTSSALGVMKPNPAMYRLGLTLAQVRPEEAVMVDDRLQNVQAARAVGMHAVQCVDAAQLREELAALGVR | not failed
MTIPLIIGGVLLAILILLILVFITKYRTVGPDEALIVTGNWLGGGKNVVTTDDGKKIKIIRGGGTFVVPIMQRAEPLSLLNYKLEVGTRDTYTKQGVPVTVNGVSIIKVGSTIEEVSTAAEQYLGKETEELKVEAKEVLEGHLRAILSSMTVEDAYSNREQFAQKVHEVASTDLKKMGLRIVSFTIKEIMDKNGYLDALGQPQIATVKRDATIANAEREKEARIEKARAEKEAKEAEYQRDAQIAEAEKHKELKVQSYKREQEQARADADLSYELQQAKAQQGVTEEQMRVKIIEREKQIELEEKEIARREKQYDAEVKKKADADRYAVEQSAEAEKVKQIKKADADQYKIEAEARARAEEVRVEGLAKAEIEKAQGQAKAEVQKAQGTAEADVIRLKGLAEAEAKQKIAEAFELYGQAAIMDMVLKMLPSYAKEVASPLSNIDKITVVDTGGGGKNSGAGKVAGYATDLMATMQETLKASSGIDLKELLEGFAGKGAVQQLSSDKPVVSVVEDKKKEVEKDKE | failed
MTIQDYMLETPVRMREIISNADSLFNEVKRTNLKKIIITGSGTSYHSGVQVQPYLQNLLDIDVVKMYPFMITEDTFKFDNENTLVVGVSQGGSSYSTYNAMKLAEDKGCKIASMAGCKNALIDEISDYILTVNCGEEKSGAKTKGYYCTKLNLMLLGLQIAREKGIISSEKYNEEINKILDAINRFEAVYKLSKQWIERNKEKLVNSKEIRIIGHSDIYGDTLEAALKLLETMRIPVTGYEFEEFIHGIYNAINSDSTIFILDTGKEPRVTKMIDVLSGWTENVFAIGRDVTENDKNLKIDITDNPYYQTFNFIVPIQLICGEIPTLRGVDPSVPKDTRFHMKLGSKKLNK | not failed
MTIQLLNDRYQVIRTLGAGGFGETYLAEDTYMPSKRRCVVKQLRPIQNNPQIYQLVQERFQREAAILEELGGATEQIPALYAYFSADGQFYLVQEWVEGDTLTGRLQQQGLFTESAIQELLVNLLPVLEYVHSKHIVHRDIKPDNIILRHRDGKPVLIDFGAVRESMGTVVNSQGNPTSSIVIGTPGYMPSEQAAGRPVYSSDLYSLGLTAIYLLTGRQPQTLEIDSQTGEIMWRQYASQMNPILASVLDKAIAYHPRDRYATARAMLDNLQSISSPIPPTQPYFAPPPVVSAPPQPTVPVAPQANVTGNNQKGILFGSLIAGGLIGASVIIGLAFTRTPQPVAENNNTSPVNSITETPVIKATPEVTQPPVTAQPIVPSPQQQVNSSPFPSITSVPIDVNINNNNYLWLSQQAVTDADLDDKDGYTLDIMRNTVFARHGRRFDNPGLQDYFNNQPWYNPIYSPKEFPIKLLTRLEQRNVDYIAAYQKRYNLRHFK | failed
MTISIDRPAPVSSWRTYRRLLAFAKPYRLLLVAALIAALIEAAGTTGFLALMKPITDETFIYKNAEVSRWLPVQIILLFVVRGVAGYITDMAMGKSARSIARDLRIKVMAKYLRLPGSRFDSEPVPSMLIRLGSDSDQVAQAAVDAVKVMIQQSLQVIGALALMLWHSWQVTLTILVLAPVLAWVMDKVARRYRRISHSIQESGAQLLQAADQTLSSHQEVKIYGAQQTEMERYGALANRNLRLAMKVESTRGISTATVQMIGAIGLSALLFVAGAQALAGRLTAGDFVVLMTSMLTIIPGLKQLTNVQNMVQRGLASAERLFSVLDSPDEPDQGTVPLTRAKGLIEFRDVTARYPGQVNPALADVSFVAQPGTVTAIVGRSGSGKSSLIKLIPRFYEAEAGQILLDGHPVQAYALADLRRQIALVGQQVMLFDGSIADNVAFGEMRNADAGKLERAILGANAMEFVAQLPEGLQSHVGTKGGRLSGGQRQRLAIARAMLKDAPVLILDEATAALDNESERLVQDALHKLMPDRTTLVIAHRLSTIEHADQVLVMDQGRIVERGTHHQLLAQGGLYSHLHGMQFRERQA | failed
MTITSKLKKRRSLSTLITKIIILVLAPIILGIFVQSYYFSKQIIWQEVDRTKQQTSALILNIFESHFAAIQIHHDSNSKSDVILDFYSERNEEALNYFFLSIDQSDPSHTPEFRFLTDHQGIIWDDGNAHFYGINDSMLDGLTSKVTFSNNWYYVTSITSMGARHLLLRRVPVLEPKTGEVMGYSYNAVVLDNNFALMEKLKNEGNVDNVVLVANDIPVASSLAGDESYKIFDVLKRKETQKKLDQLLIIQTPIEVNAAITNLKLLTVQDNQSVVTLQIQHFLAMLASVIGMIMIALMTKEWIENRVVEELGSLMSYTRSAREEKGFERFGGSDIEEFDHIGSTLESTFEELEAQKRSFRDLFNFALSPIMVWSEAGVLIQINPAARKELVIENDIETMHPVFKGFKDKLVPHLRMAAQGATLTGVNVPIGDKVFRWNLSPIRVDGDISGIIVQGQDITTLIEAEKQSNLARREAEKSAQARADFLAKMSHEIRTPINGILGVAQLLKDSVEAEEQKNQIDVLRHSGEHLLAVLNDILDFSKIEQGKFNIQKHPFSFADTMRTLENIYRPICENKGVELVIENQLDGNVEIFTDQVRLNQILFNLVSNAVKFTPSGCVRLHAELEQFYGADNSVLVVEISDTGIGIESDKLDEMFEPFVQEEATTTREYGGSGLGLTIVKNLVDMLDGDVQVRSQKGQGTTFVVTLPVKDRERVLAPLDSSQRVKPAELFDESLKVLLVEDNHTNAFILKAFCTKYKMQVDWAKDGLEAMEFLKDHSYDLILMDNQLPHLGGIETTKEIRQNLKLGTPIYACTADTAQETSDAFMEAGANYVLLKPIKENALHEAFVDFKQRFLIERT | failed
MTKCGHSFCYKCIHQSLEDNNRCPKCNYVVDNIDHLYPNFLVNELILKQKQRFEEKRFKLDHSVSSTNGHRWQIFQDWLGTDQDNLDLANVNLMLELLVQKKKQLEAESHAAQLQILMEFLKVARRNKREEMSGLYSPVSEDSTVPQFEAPSPSHSSIIDSTEYSQPPGFSGSSQTKKQPWYNSTLASRRKRLTAHFEDLEQCYFSTRMSRISDDSRTASQLDEFQECLSKFTRYNSVRPLATLSYASDLYNGSSIVSSIEFDRDCDYFAIAGVTKKIKVYEYDTVIQDAVDIHYPENEMTCNSKISCISWSSYHKNLLASSDYEGTVILWDGFTGQRSKVYQEHEKRCWSVDFNLMDPKLLASGSDDAKVKLWSTNLDNSVASIEAKANVCCVKFSPSSRYHLAFGCADHCVHYYDLRNTKQPIMVFKGHRKAVSYAKFVSGEEIVSASTDSQLKLWNVGKPYCLRSFKGHINEKNFVGLASNGDYIACGSENNSLYLYYKGLSKTLLTFKFDTVKSVLDKDRKEDDTNEFVSAVCWRALPDGESNVLIAANSQGTIKVLELV | failed
MTKFYKFLISIIILALVCLIFFLAKSNILNLDSLKNLILSSGYFAPLIYIIAFALVPLTFFPDSVLAILGGSIFGLGGGFLYTSIGALIGGSISFFISRILGQSFVEKFENDKLKNIQELLKDNGFLMILLLRLIPLFPFDLISYGAGLTKISYKDFALGTLIGTIPGILVFVNLGAQWITFNKTSIYLSVSLLILFIIVSVFLKKIYINKHLAKEN | failed
MTKILYMVVPCYNEELVLDETSERLKAKYEQLISNNIISPKSRVVYVNDGSKDKTWEKIQEKHNENPMFSGINLSRNRGHQNALLAGLMTVRNLADCVISMDADLQDDINAIDEMLEKFENENCDIVYGVRDNRDTDTVFKRRTAGAFYKLMQGLGSQSVPNHADFRLMSRRALDGLAQFPEQNLFLRGMVPLVGYKSDIVYYKRGERFAGESKYPLKKMISFALDGITSTSAAPMRLIFWIGLIWFLLAIVGAIYIIARHFINGSDVAGWASTMLAIIGFGGANLLALGVIGEYIGKIFLEVKQRPRYLIEDFINED | failed
MTKLERMEHPAYSQLRPVTPSASVVLCPNPGYSSLEGTNSWVIRAPEDPRSIVIDPGPEDEGHLNVLHSKAEEVGLILLTHRHYDHADGAQRFRQLTNAPVRAMDPSYCAGAEEIHDGEIITIDGVTPQIEVVATPGHTRDSVSYFIWSGVPHESTLEGIVSGDTIAGRHTTMISETDGDLGEYLNSLAILEERGKDIPLLPGHGPDGQDVSSFARKYIERRELRLNQIREVWETRGRDVSMKDLIDAIYDDVDPVLRGAAEQSTHVAIRYLQAQEASASN | failed
MTKLSDRLMEIYRLINQAARVADIGTDHAAIPIALLETNKSSFLVATDIGLGPLEKAKEQIELADLDQAKQIVLRLGDGLSVIKASDKIDTVVIAGMGGELIAKIISKIPDYLKNAKFILQPNNEEIDVRKAIEKNGQYIETEKIIYENRHFYEIIVAKRSQQGIVKMTNRELRFGPCLLKHRTSTFKNKWQERLDHSKQIEKILEKSLRTSTKRYDSLQAEIKTIEEALK | not failed
MTKNDNTIFKDIYQLWFTQYKQTVKESTWVTTQRLFRLHILPIFSDYRIAKISIKDCQKAINQWFNAGLAKYHTLMNYVAKVLDYAINIDLISENPAKRVIVPVNKNDRSLEHHHHHH | not failed
MTKTVEMVITGAQVLNVYTREFEATSLWIDHGRIISNLRDEPYIAAQHVDATGQWIVPGMIDAHVHMESSMVAPSELGKVLLQHGVTTIATDPHELANVAGLEHHHHHH | failed
MTKVERLLINYKTLEEFKKFKEYGIQELSMLEELQDNIIENDSTSPFYGIYFGDKLVARMSLYQVNGKSNPYFDNRQDYLELWKLEVLPGYQNRGYGRALVEFAKSFKMPIRTNPRMKSAEFWNKMNFKTVKYDMARDKGEDPLIWHPDMDREMTPGESA | not failed
